Here are results for three molecules from patent US20260028422A1 (CONCEPT TO MEDICINE BIOTECH, published 2026).

The target of assay [1] is T1, cyno MerTK-his protein (cynomolgus, UniProt A0A2K5V1H9 27-505).
T1 construct: also called cyno MerTK protein; Cynomolgus
T1 sequence: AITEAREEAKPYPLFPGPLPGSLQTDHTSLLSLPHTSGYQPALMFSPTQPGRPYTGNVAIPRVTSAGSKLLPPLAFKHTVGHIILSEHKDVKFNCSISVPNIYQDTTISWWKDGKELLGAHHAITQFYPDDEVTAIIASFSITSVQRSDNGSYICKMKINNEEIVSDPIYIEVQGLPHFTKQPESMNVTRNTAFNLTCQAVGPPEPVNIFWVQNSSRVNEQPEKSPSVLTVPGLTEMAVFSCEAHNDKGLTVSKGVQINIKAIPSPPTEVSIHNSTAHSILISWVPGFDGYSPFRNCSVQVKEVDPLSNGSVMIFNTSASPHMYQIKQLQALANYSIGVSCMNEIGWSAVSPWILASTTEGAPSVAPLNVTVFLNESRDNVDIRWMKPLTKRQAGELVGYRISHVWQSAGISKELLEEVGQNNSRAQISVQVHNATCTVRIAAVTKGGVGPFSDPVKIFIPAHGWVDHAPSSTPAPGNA
Description: ELISA, plate coated with cyno MerTK-his, anti-human IgG Fc-HRP, OD 450nm.

Assay [2] concerns the target T2, human MerTK-his protein (human, UniProt Q12866 21-505).
T2 construct: extracellular domain; also called hMerTK-His; human MerTK protein
T2 sequence (looked up): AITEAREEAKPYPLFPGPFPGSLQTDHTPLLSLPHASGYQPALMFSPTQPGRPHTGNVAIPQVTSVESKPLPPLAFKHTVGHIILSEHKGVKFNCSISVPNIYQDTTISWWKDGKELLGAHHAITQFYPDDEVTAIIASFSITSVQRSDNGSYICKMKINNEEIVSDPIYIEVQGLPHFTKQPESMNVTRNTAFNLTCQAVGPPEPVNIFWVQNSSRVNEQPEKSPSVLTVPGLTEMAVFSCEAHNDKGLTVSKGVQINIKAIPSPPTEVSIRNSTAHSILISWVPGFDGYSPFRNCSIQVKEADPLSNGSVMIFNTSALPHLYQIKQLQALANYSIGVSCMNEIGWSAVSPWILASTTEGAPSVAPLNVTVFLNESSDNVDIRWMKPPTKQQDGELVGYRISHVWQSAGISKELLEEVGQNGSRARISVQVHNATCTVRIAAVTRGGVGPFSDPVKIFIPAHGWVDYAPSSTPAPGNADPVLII
Description: ELISA, plate coated with human MerTK-his, anti-human IgG Fc-HRP, OD 450nm.

In assay [3] the target is T1, cyno MerTK-his protein. Kind of assay: ELISA, plate coated with cyno MerTK-his, anti-human IgG Fc-HRP, OD 450nm. The source holds these as a separate data set.
For assay [4], the target named is T3, human MerTK expressed on cells (human, UniProt Q12866 21-999).
T3 construct: whole, on cells; also called CHO-K1-hMerTK; CHO-K1-MerTK
T3 sequence (looked up): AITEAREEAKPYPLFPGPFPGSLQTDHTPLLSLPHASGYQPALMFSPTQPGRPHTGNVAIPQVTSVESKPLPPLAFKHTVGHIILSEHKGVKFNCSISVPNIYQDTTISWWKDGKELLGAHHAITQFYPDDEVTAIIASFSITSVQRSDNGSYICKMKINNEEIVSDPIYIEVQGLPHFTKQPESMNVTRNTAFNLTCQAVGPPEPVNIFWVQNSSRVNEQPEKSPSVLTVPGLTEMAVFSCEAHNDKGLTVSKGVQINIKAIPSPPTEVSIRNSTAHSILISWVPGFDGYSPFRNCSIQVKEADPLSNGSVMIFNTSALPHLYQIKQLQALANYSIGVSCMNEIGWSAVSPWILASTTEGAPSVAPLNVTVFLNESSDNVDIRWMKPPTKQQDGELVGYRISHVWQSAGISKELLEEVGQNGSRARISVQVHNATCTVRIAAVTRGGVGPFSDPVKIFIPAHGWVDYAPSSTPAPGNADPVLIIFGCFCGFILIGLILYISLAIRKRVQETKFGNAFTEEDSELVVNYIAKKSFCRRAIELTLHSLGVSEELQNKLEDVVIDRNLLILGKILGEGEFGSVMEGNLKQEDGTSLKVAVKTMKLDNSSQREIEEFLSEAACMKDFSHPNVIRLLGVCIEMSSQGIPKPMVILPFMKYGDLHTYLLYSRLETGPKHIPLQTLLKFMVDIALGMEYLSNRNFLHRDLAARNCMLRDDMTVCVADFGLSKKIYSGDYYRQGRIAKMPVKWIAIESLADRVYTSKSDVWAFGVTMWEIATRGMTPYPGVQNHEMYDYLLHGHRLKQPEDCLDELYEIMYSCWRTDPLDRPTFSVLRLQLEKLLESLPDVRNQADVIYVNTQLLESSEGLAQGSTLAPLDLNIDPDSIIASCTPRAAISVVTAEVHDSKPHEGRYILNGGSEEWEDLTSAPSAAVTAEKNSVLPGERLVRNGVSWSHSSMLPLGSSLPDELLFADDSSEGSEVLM
Description: FACS on CHO-K1 cells overexpressing human MerTK, MFI (AF488).

The target of assay [5] is T2, human MerTK-his protein. Kind of assay: SPR Biacore 8K, antibody captured on Protein A chip, 50 nM antigen. How it is done: To explore whether the humanized antibodies could maintain their binding kinetics, affinity ranking were performed with Biacore™. The antibodies were captured with a Protein A chips. Human MerTK-his protein at 50 nM was injected over captured antibodies for 180 s at a flow rate of 30 μL/min. The antigen was allowed to dissociate for 600 s. The experiment was carried out on a Biacore™ 8K. Data analysis was carried out using Biacore™ 8K evaluation software.

For assay [6], the target named is T2, human MerTK-his protein. Description: ELISA, plate coated with human MerTK-his, OD 450nm. The protocol:
To evaluate the binding activity, the chimeric mAbs were subjected to ELISA test. Briefly, 96-well plates were coated with human or cyno MerTK-his protein at 2 μg/mL in PBS, 100 μL/well at 4° C. overnight, then blocked with 150 μL/well of 1% BSA. Five-fold dilutions of MerTK antibodies starting from 20 nM were added to each well and incubated for 1 hour at room temperature. The plates were washed with PBS/Tween-20 and then incubated with goat anti-human IgG Fe antibody conjugated with Horse Radish Peroxidase (HRP) for 30 minutes (mins) at room temperature. After washing, the plates were developed with TMB substrate and subsequent stop solution was added to complete the reaction. The signal from each well was read by spectrophotometer at OD 450 nm.
To evaluate the antigen binding activity, the humanized antibodies were subjected to ELISA test as described before.

Like-named read-outs stand apart in the source and are kept apart here.

B1: h13B4.v16 benchmark antibody (antibody, V domains shown)
VH: EVQLVESGEGLVQPGGSLRLSCAASGFSLSSYAMGWVRQAPGKGLEYVGIINSYGNTYYANWAKGRFTISRDNSKNTVYLQMGSLRAEDMAVYYCARDPGVSSNLWGRGTLVTVSS
VL: DIQMTQSPSTLSASVGDRVTITCQASQNIYSGLAWYQQKPGKAPKLLIYGASKLASGVPSRFSGSGSGTEFTLTISSLQPDDFATYYCQATYYSSNSVAFGGGTKVEIK
Take B1: the results for the EC50 in assay [1], in assay [2] and in assay [3] were 0.044 nM, 0.037 nM and 0.027 nM, respectively.

B2: 254B4D9 chimeric monoclonal antibody (antibody, V domains shown)
VH: QIQLVQSGPELKKPGETVKISCKASGYTFTAYGMSWVKQAPGKGLQWMGWINTYSGVPTYTDDFKGRFAFSLEASASTAFLQINNLKNEDTSTYFCARRAAVVAKYWYFDVWGTGTTVTVSS
VL: DIQMTQSPSSLFASLGGKVIITCKSSQDINKRISWYQHKPGKGPRLLIHSTSSLQPGIPLRFSGSGSGRDYSFSISNLEPEDIATYFCLQYDNLLTFGAGTKLELK
In the case of B2, the concentration giving a half-maximal response (EC50) in assay [4] is 1 nM. For the same molecule, in assay [5], the Kd was determined as 34.9 nM, the koff amounted to 0.000785 s⁻¹ and the kon was 22500 M⁻¹ s⁻¹.

B3: 265F11B5 chimeric monoclonal antibody (antibody, V domains shown)
VH: QVQLQQSGPELVKPGASVRLSCKASGYTFTTYDINWVKQRPGLGLEWIGWIYPRDGYTKYNEKFKGRATLAVDTSSSTAYMELHSLTSEDSAVYFCTRGYYDNLYYFDYWGQGTTLTVSS
VL: EIVLTQSPTTVAASPGEKITITCSASSIISSNYFHWYQQRPGFSPKLLIYRTSNLASGVPARFSGSGSGTSYSLTIGTMEAEDVATYYCQQGRSVPLTFGAGTKLELK
B3: in assay [6], the EC50 came out at 0.098 nM. In assay [5], the Kd is 0.392 nM, the koff turned out to be 7.78e-05 s⁻¹ and the kon amounted to 199000 M⁻¹ s⁻¹.
